Results on 125 sequences are retold here after the supplement of paper PMC9112550, “Optimization of the antimicrobial peptide Bac7 by deep mutational scanning” (BMC Biology, 2022).

In this data set the test system is Escherichia coli TOP10. Put plainly: shrunken log2 fold change of peptide-encoding DNA abundance (4.5 h post-induction vs induction); higher = less antimicrobial activity (less host growth inhibition). Particulars: time post-induction: 4.5 h; library: site-saturation at positions 5, 18, 19, 20.
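Also: peptides expressed intracellularly from a pBAD plasmid library in pooled LB shake-flask culture, induced with 0.3% L-arabinose, DNA abundance read by NGS, three biological replicates, DESeq2 with apeglm shrinkage.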

Take RRIRCRPPRLPRPRPRPPGKPRP: the “shrunken log2 fold change” value was 0.141. On to RRIRGRPPRLPRPRPRPFCNPRP, for which the “shrunken log2 fold change” value was 0.243. The figure for RRIRIRPPRLPRPRPRPMMKPRP is -0.166; for RRIRPRPPRLPRPRPRPWKMPRP it is 0.0124; for RRIRYRPPRLPRPRPRPKYKPRP it is -0.78. As for RRIRMRPPRLPRPRPRPADAPRP, the “shrunken log2 fold change” value stood at 1.21. For the sequence RRIRNRPPRLPRPRPRPYAFPRP, the “shrunken log2 fold change” value came out at 0.0147. As to RRIRTRPPRLPRPRPRPSPTPRP, the “shrunken log2 fold change” value is 0.0477. The figure for RRIRWRPPRLPRPRPRPNQKPRP is -0.0347. Take RRIRIRPPRLPRPRPRPSALPRP: the “shrunken log2 fold change” value was -0.832.

On to RRIRVRPPRLPRPRPRPIQMPRP, for which the “shrunken log2 fold change” value is -0.0987. In the case of RRIRTRPPRLPRPRPRPNGHPRP, the “shrunken log2 fold change” value stood at 0.0943.

Turning to RRIRPRPPRLPRPRPRPDADPRP, the “shrunken log2 fold change” value turned out to be 0.0741.

As to RRIRTRPPRLPRPRPRPEGMPRP, the “shrunken log2 fold change” value came out at 0.18. The result for RRIRPRPPRLPRPRPRPYQFPRP reads -0.114; that for RRIRNRPPRLPRPRPRPLDEPRP, 0.126.

Take RRIRCRPPRLPRPRPRPQAEPRP: the “shrunken log2 fold change” value is 0.215.

For the sequence RRIRYRPPRLPRPRPRPILQPRP, the “shrunken log2 fold change” value was found to be 0.049. With RRIRERPPRLPRPRPRPICWPRP, the “shrunken log2 fold change” value came to 0.0372. The figure for RRIRCRPPRLPRPRPRPILMPRP is -0.796.

As to RRIRYRPPRLPRPRPRPSCYPRP, the “shrunken log2 fold change” value was -0.0789. With RRIRCRPPRLPRPRPRPMMLPRP, the “shrunken log2 fold change” value is -0.117. As for RRIRARPPRLPRPRPRPVDVPRP, the “shrunken log2 fold change” value was -0.113.

Consider RRIRLRPPRLPRPRPRPYNDPRP, for which the “shrunken log2 fold change” value was -0.0858. In the case of RRIRWRPPRLPRPRPRPYRHPRP, the “shrunken log2 fold change” value was -0.0902. As to RRIRKRPPRLPRPRPRPQQIPRP, the “shrunken log2 fold change” value is -0.248.

Consider RRIRRRPPRLPRPRPRPMQNPRP, for which the “shrunken log2 fold change” value worked out at 0.362. For RRIRRRPPRLPRPRPRPDFGPRP, the “shrunken log2 fold change” value came to 0.0803. As for RRIRHRPPRLPRPRPRPVNLPRP, the “shrunken log2 fold change” value was -0.0241. The figure for RRIRQRPPRLPRPRPRPNCVPRP is -0.0688; for RRIRIRPPRLPRPRPRPIVQPRP it is -0.158; for RRIRPRPPRLPRPRPRPVQVPRP it is -0.119. RRIRQRPPRLPRPRPRPYFEPRP: the “shrunken log2 fold change” value is -0.524. On to RRIRIRPPRLPRPRPRPLPGPRP, for which the “shrunken log2 fold change” value was -0.0346. Consider RRIRNRPPRLPRPRPRPSMPPRP, for which the “shrunken log2 fold change” value was -0.139.

For RRIRNRPPRLPRPRPRPYCSPRP, the “shrunken log2 fold change” value is -0.0619.

For RRIRRRPPRLPRPRPRPCDAPRP, the “shrunken log2 fold change” value was determined as 0.221. The result for RRIRNRPPRLPRPRPRPHDFPRP reads 0.137; that for RRIRFRPPRLPRPRPRPTSNPRP, -0.617; that for RRIRTRPPRLPRPRPRPGWEPRP, 0.0505. For the sequence RRIRDRPPRLPRPRPRPIGLPRP, the “shrunken log2 fold change” value is -0.00129. The figure for RRIRFRPPRLPRPRPRPSVVPRP is -0.786.

In the case of RRIRARPPRLPRPRPRPPVGPRP, the “shrunken log2 fold change” value came to 1.18. The figure for RRIRNRPPRLPRPRPRPIKPPRP is -0.00904; for RRIRGRPPRLPRPRPRPQLEPRP it is 0.838; for RRIRVRPPRLPRPRPRPAHEPRP it is 0.205. Consider RRIRPRPPRLPRPRPRPGHMPRP, for which the “shrunken log2 fold change” value was -0.238.

For the sequence RRIRWRPPRLPRPRPRPSYQPRP, the “shrunken log2 fold change” value is -1.04. As to RRIRGRPPRLPRPRPRPHGQPRP, the “shrunken log2 fold change” value amounted to 0.578. For the sequence RRIRCRPPRLPRPRPRPFIMPRP, the “shrunken log2 fold change” value was -0.765. In the case of RRIRERPPRLPRPRPRPAHMPRP, the “shrunken log2 fold change” value is -0.291. RRIRNRPPRLPRPRPRPCAWPRP: the “shrunken log2 fold change” value is -0.147. RRIRRRPPRLPRPRPRPLLHPRP: the “shrunken log2 fold change” value turned out to be 0.295. Turning to RRIRGRPPRLPRPRPRPGWDPRP, the “shrunken log2 fold change” value is 1.09. Regarding RRIRDRPPRLPRPRPRPDFDPRP, the “shrunken log2 fold change” value amounted to 0.541. For the sequence RRIRYRPPRLPRPRPRPFMSPRP, the “shrunken log2 fold change” value is -0.348. Consider RRIRNRPPRLPRPRPRPNPEPRP, for which the “shrunken log2 fold change” value is -0.224. Regarding RRIRCRPPRLPRPRPRPGRRPRP, the “shrunken log2 fold change” value turned out to be 1.11. RRIRLRPPRLPRPRPRPMEQPRP: the “shrunken log2 fold change” value turned out to be 0.168. The figure for RRIRTRPPRLPRPRPRPRNIPRP is -0.623; for RRIRWRPPRLPRPRPRPCGKPRP it is 0.0489. Turning to RRIRSRPPRLPRPRPRPANEPRP, the “shrunken log2 fold change” value stood at 0.0433. For RRIRWRPPRLPRPRPRPTEMPRP, the “shrunken log2 fold change” value was -0.00675.

RRIRQRPPRLPRPRPRPMITPRP: the “shrunken log2 fold change” value is -0.166. Consider RRIRSRPPRLPRPRPRPYNIPRP, for which the “shrunken log2 fold change” value is -0.579. The result for RRIRKRPPRLPRPRPRPCVAPRP reads 0.223; that for RRIRFRPPRLPRPRPRPTCPPRP, 0.174. As to RRIRRRPPRLPRPRPRPWCTPRP, the “shrunken log2 fold change” value is -0.0123.

With RRIRCRPPRLPRPRPRPRPTPRP, the “shrunken log2 fold change” value amounted to 0.808. For RRIRDRPPRLPRPRPRPTGCPRP, the “shrunken log2 fold change” value is 0.247. Turning to RRIRSRPPRLPRPRPRPNGFPRP, the “shrunken log2 fold change” value was -0.0748. The result for RRIRIRPPRLPRPRPRPAESPRP reads 0.0486; that for RRIRVRPPRLPRPRPRPLMWPRP, 0.157. For the sequence RRIRGRPPRLPRPRPRPAGAPRP, the “shrunken log2 fold change” value came to 1.16. On to RRIRVRPPRLPRPRPRPEKHPRP, for which the “shrunken log2 fold change” value is -0.0527. Turning to RRIRDRPPRLPRPRPRPKHNPRP, the “shrunken log2 fold change” value was -0.0986. Turning to RRIRVRPPRLPRPRPRPQWGPRP, the “shrunken log2 fold change” value is -0.149.

For RRIRSRPPRLPRPRPRPWQPPRP, the “shrunken log2 fold change” value was 0.155. In the case of RRIRERPPRLPRPRPRPIFVPRP, the “shrunken log2 fold change” value was -0.295. As for RRIRSRPPRLPRPRPRPNMVPRP, the “shrunken log2 fold change” value was -0.0658. Regarding RRIRWRPPRLPRPRPRPDTMPRP, the “shrunken log2 fold change” value stood at 0.19. With RRIRPRPPRLPRPRPRPAIFPRP, the “shrunken log2 fold change” value is -0.0302. The result for RRIRCRPPRLPRPRPRPYVDPRP reads -0.232; that for RRIRPRPPRLPRPRPRPIGAPRP, 0.288; that for RRIRERPPRLPRPRPRPLWDPRP, 0.108.

For the sequence RRIRGRPPRLPRPRPRPQNHPRP, the “shrunken log2 fold change” value is -0.18. The figure for RRIRPRPPRLPRPRPRPEVLPRP is -0.204. Consider RRIRKRPPRLPRPRPRPREAPRP, for which the “shrunken log2 fold change” value amounted to 1.44. Take RRIRARPPRLPRPRPRPYRTPRP: the “shrunken log2 fold change” value is -0.0383.

As for RRIRSRPPRLPRPRPRPFAQPRP, the “shrunken log2 fold change” value was found to be 0.185. In the case of RRIRGRPPRLPRPRPRPHFEPRP, the “shrunken log2 fold change” value was 0.328. Regarding RRIRARPPRLPRPRPRPRDYPRP, the “shrunken log2 fold change” value was 0.204. Take RRIRSRPPRLPRPRPRPYNRPRP: the “shrunken log2 fold change” value was -0.267. Take RRIRMRPPRLPRPRPRPPQFPRP: the “shrunken log2 fold change” value was 0.0882. With RRIRHRPPRLPRPRPRPVEYPRP, the “shrunken log2 fold change” value was -0.0122. Regarding RRIRYRPPRLPRPRPRPLTGPRP, the “shrunken log2 fold change” value was -0.023.

For RRIRDRPPRLPRPRPRPQDQPRP, the “shrunken log2 fold change” value was -0.144.

In the case of RRIRKRPPRLPRPRPRPLKIPRP, the “shrunken log2 fold change” value was found to be 2.15. RRIRERPPRLPRPRPRPVPIPRP: the “shrunken log2 fold change” value turned out to be 0.343.

Consider RRIRCRPPRLPRPRPRPVRNPRP, for which the “shrunken log2 fold change” value stood at 0.0515. For the sequence RRIRARPPRLPRPRPRPCEKPRP, the “shrunken log2 fold change” value was 0.0244.

For RRIRVRPPRLPRPRPRPWTMPRP, the “shrunken log2 fold change” value was -0.134.

For RRIRHRPPRLPRPRPRPPDKPRP, the “shrunken log2 fold change” value was -0.112. The figure for RRIRARPPRLPRPRPRPAANPRP is 0.741; for RRIRLRPPRLPRPRPRPQELPRP it is -0.0432; for RRIRMRPPRLPRPRPRPDTSPRP it is 1.47. Turning to RRIRSRPPRLPRPRPRPVCLPRP, the “shrunken log2 fold change” value was determined as 0.0459. Consider RRIRNRPPRLPRPRPRPENCPRP, for which the “shrunken log2 fold change” value came out at 0.0518.

RRIRARPPRLPRPRPRPYHSPRP: the “shrunken log2 fold change” value was -0.237. For RRIRDRPPRLPRPRPRPFQPPRP, the “shrunken log2 fold change” value was found to be 0.0201. The result for RRIRLRPPRLPRPRPRPKARPRP reads -0.00543; that for RRIRPRPPRLPRPRPRPYNPPRP, -0.84. As to RRIRGRPPRLPRPRPRPKGHPRP, the “shrunken log2 fold change” value turned out to be 0.67. As to RRIRHRPPRLPRPRPRPVMQPRP, the “shrunken log2 fold change” value is -0.01. Regarding RRIRYRPPRLPRPRPRPRLSPRP, the “shrunken log2 fold change” value is -0.0417. For RRIRYRPPRLPRPRPRPCREPRP, the “shrunken log2 fold change” value was -0.152. The result for RRIRYRPPRLPRPRPRPQFAPRP reads 0.0437; that for RRIRTRPPRLPRPRPRPSRRPRP, 0.128. RRIRIRPPRLPRPRPRPIWLPRP: the “shrunken log2 fold change” value was -0.11.

For the sequence RRIRLRPPRLPRPRPRPCDQPRP, the “shrunken log2 fold change” value was -0.016. For the sequence RRIRLRPPRLPRPRPRPVWYPRP, the “shrunken log2 fold change” value is -0.277. Regarding RRIRWRPPRLPRPRPRPCESPRP, the “shrunken log2 fold change” value is -0.0177. As for RRIRRRPPRLPRPRPRPNADPRP, the “shrunken log2 fold change” value was 0.579. The result for RRIRWRPPRLPRPRPRPFRAPRP reads -0.112; that for RRIRQRPPRLPRPRPRPIMSPRP, 0.0933.
